Reference: patent US11549115B2, “Compositions and methods for regulated gene expression” (YALE UNIVERSITY, priority 2017, dated 2023)

Experiments:
sialidases = details: cited from earlier work
B. thetaiotaomicron [1] = assay: Polymyxin B susceptibility (MIC, E-test strips); type: cell-based, Bacteroides thetaiotaomicron; details: for PMB resistance of B. thetaiotaomicron lpxF mutant expressing lpxF from the promoter: no TetR
Protocol: Minimum inhibitory concentrations (MICs) were determined on solid medium using E-test strips (Biomerieux) as previously described (Cullen, T. W. et al., 2015, Science, 347:170-175), except that cultures were initially grown for 18 hours in liquid medium. Cultures were adjusted to OD600˜1.0 and 100 μL of cell suspension was then spread onto BHI-blood agar plates. Surface liquid was allowed to dry in a fume hood for 10 minutes, followed by application of the E-test strip to the agar surface.

B. thetaiotaomicron [2] = details: cited from earlier work
[3] = test system: NanoLuc luciferase reporter in B. thetaiotaomicron; assay: NanoLuc luciferase assay from in vitro samples (promoter activity); type: cell-based, Bacteroides thetaiotaomicron
Protocol: The NanoLuc luciferase assay was performed as described (Mimee, M. et al., 2015, Cell Syst., 1:62-71), with the following modifications. All strains were first grown for 18 hours in TYG medium or Gut Microbiota Medium and diluted 250-fold into fresh medium in appropriate conditions (with or without aTC). Cultures were grown to mid exponential phase (OD600 0.3-0.4) and colony forming units (CFU) were measured by dilution plating. 500 μL of the culture was centrifuged at 21,130×g for 3 minutes, resuspended in 50 μL 1× BugBuster (Novagen) in 1×PBS and lysed by one cycle of freeze-thaw and nutation at 26° C. for 10 minutes. Lysates were cleared of cellular debris by centrifugation at 21,130×g for 10 minutes at 4° C. 10 μL of the supernatant was mixed with an equal volume of NanoLuc Reaction Buffer using the Nano-Glo Luciferase Assay System (Promega) and incubated for 5 minutes at 26° C. to induce luminescence production. Relative Light Units (RLU) were measured using a fluorescence plate reader (BioTek Synergy H1) with an integration time of 1 second at a gain setting of 100. Luminescence values were normalized to colony forming units (CFUs) because experimental conditions (e.g., growth medium, antibiotics, aTC, heterologous gene expression) affect the correlation between CFUs and OD600 in Bacteroides.

B. thetaiotaomicron [4] = assay: aTC-induced expression of periplasm-targeted T6SS effectors (viability, culture density); type: cell-based, Bacteroides thetaiotaomicron; details: under P1TDP in Bt::tetR, aTC added
Description: To direct Bte1 and Bfe1 to the periplasm upon expression in B. thetaiotaomicron, the genes encoding each effector were first PCR amplified from genomic DNA purified from B. fragilis NCTC 9343 and B. fragilis 638R, respectively, using the CTAB method. A periplasmic localization signal was searched for that would be cleaved after translocation to prevent steric hindrance of the effector. To identify proteins that encode N-terminal B. thetaiotaomicron periplasmic localization signals that are post-translationally cleaved after protein translocation, the proteome of the Bacteroides thetaiotaomicron VPI-5482 chromosome was searched for signal peptides (PTM/Processing; Molecule Processing, Signal Peptide) using UniProt (UniProt Consortium, 2015, Nucleic Acids Research, 43:D204-D212). To exclude membrane proteins that potentially encode an uncleaved signal peptide, the search was refined by an additional query for the term “periplasmic” under Protein name. To identify a short periplasmic signal, the maximum length for the signal peptide was set at 20 amino acids. […] Therefore, the B. fragilis effectors were fused at the 5′ end (minus the ATG start codon) to the first 63 base pairs (encoding the first 21 amino acids) of the BT4676 open reading frame (see Table 2 for sequence) in order to localize them to the periplasm after expression in B. thetaiotaomicron.

Molecule: CC(=O)N[C@H]1[C@H]([C@H](O)[C@H](O)CO)O[C@@](Oc2ccc([N+](=O)[O-])cc2)(C(=O)O)C[C@@H]1O [pNP-SA, 2-O-(p-Nitrophenyl)-t-D-N-acetylneuraminic acid]
- Km (sialidases): 110 µM

Molecule: polymixin B [PMB]
- PMB MIC (B. thetaiotaomicron [1]; Bt::tetR lpxF carrying P1TDP-lpxF fusion, TetR repressed, no aTC): < 0.064 mg/L
- reduction of PMB MIC by TetR repression of P1TDP-lpxF (B. thetaiotaomicron [1]; Bt::tetR lpxF, no aTC): over 10,000 fold
- PMB MIC (B. thetaiotaomicron [1]; wildtype B. thetaiotaomicron): > 1024 mg/L
- reduction of PMB resistance by deletion of lpxF (B. thetaiotaomicron [2]): four orders of magnitude

B1: P1: Constitutive promoter of Bacteroides 16S rDNA (BT_r09 P1) (nucleic acid)
DNA: TTTTGCACCCGCTTTCCAAGAGAAGAAAGCCTTGTTAAATTGACTTAGTGTAAAAGCGCAGTACTGCTTGACCATAAGAACAAAAAAACTTCCGATAAAGTTTGGAAGATAAAGCTAAAAGTTCTTATCTTTGCAGTC
modifications: Constitutive promoter (last nucleotide is +1 TSS)
- effect of TetR on promoter activity ([3]; Bt::tetR, no aTC): no effect
- PMB resistance of B. thetaiotaomicron lpxF mutant expressing lpxF from the promoter (B. thetaiotaomicron [1]): increases PMB resistance to wildtype levels

B2: P2: Constitutive promoter of Bacteroides 16S rDNA (nucleic acid)
DNA: AAGAAAAGGCGTTTTGTTTTTCTTCTTTACCTTCTTTCCCTTTCGCTAAGAGAGTCTGAGAAACGATAGAAAAAGAAAAGCGAAAAAACTTCCGAAAACATTTGGTAGTTAAAATAAAACCTCTTACCTTTGCACCC
modifications: P2 Constitutive promoter (last nucleotide is +1 TSS)
notes: Constitutive promoter of Bacteroides 16S rDNA
- PMB resistance of B. thetaiotaomicron lpxF mutant expressing lpxF from the promoter (B. thetaiotaomicron [1]): increases PMB resistance to wildtype levels

B3: ss-Bfe1: Periplasmic localized T6SS effector from B. fragilis 638R (protein)
chain: MKKILSLLVMAIVAIQFSFAGAYRNEYKTQSEFNVILERGDDYEGFVVGLGYTWMSSKVILPVNQNGWSPISRNVSVDESFHTIVSERKYDTSQYAYEKSLMQDPTKVSEKVRDLIVKNKGNNITEINLGQEKQYLPTDNSQISIVITDTGSRYEIVISATDNSNGKTYEAKYESLTDLVSAVRDSGSLPAVNKEGPNLEGLAGLGFGIAETAGNWAEKIMDNRGAYLPKQMRFSPKTLPPIIRLPLGNYQVPAKGMSRVRGVGKALGWAGMVLTGYQVVRDVQNGRFAVAGTRIAVAGLAYGVTFIPYVGWVLAIGIGVADYTWGDEFYDWIDNRASELEMWWDGVRLAL
modifications: Periplasmic-localized T6SS effector from B. fragilis 638R
- toxicity on expression in B. thetaiotaomicron (B. thetaiotaomicron [4]): highly toxic

B4: ss-Bte1: Periplasmic localized T6SS effector from B. fragilis NCTC 9343 (protein)
chain: MKKILSLLVMAIVAIQFSFAGGKEIEIKKLPEFEAMVNAGNTTYTGLVEGIGYVYWTTETLYFIRTNPEQLWAIPKYQQIPFPYFQRKDAIIETKTLHTLHVLSKDELLKLDYDAYYAFYGIVEEMLKFIHRADAIKSYCEIPLPIIKSKGALKGNDARNGILSLGSQINDQIGAPLDAANMLMDNKHIGKIGDGLSLISIIDEVGNGEYWSAAGDILLFAAGKTKLSPYMTVISLGTWMYETDLMQWRLACINYSDYKKTLIKYRELQKKFESGDKSVEEKMNECHKILNSHYIEMQKNLGNLGVKF
modifications: Periplasmic-localized T6SS effector from B. fragilis NCTC 9343
- toxicity on expression in B. thetaiotaomicron (B. thetaiotaomicron [4]): highly toxic

B5: P1TP: Synthetic aTC-inducible promoter (proximal tetO2) + RBS GH023 (nucleic acid)
DNA: TTTTGCACCCGCTTTCCAAGAGAAGAAAGCCTTGTTAAATTGACTTAGTGTAAAAGCGCAGTACTGCTTGACCATAAGAACAAAAAAACTTCCGATAAAGTTTGGAAGATAAAGCTAAAAGTTCTTATCTTTGCAGTCTCCCTATCAGTGATAGAGACGAAATAAAGACATATAAAAGAAAAGACACCATG
modifications: P1TPSynthetic aTC-inducible promoter (proximal tetO2)+RBS GH023
- PMB resistance of B. thetaiotaomicron lpxF mutant expressing lpxF from the promoter (B. thetaiotaomicron [1]): increases PMB resistance to wildtype levels

B6: P1TDP^B40: Synthetic aTC-inducible promoter (distal and proximal tetO2) + RBS B40 (nucleic acid)
DNA: TTTGCACCCGCTTTCCAAGAGAAGAAAGCCTTGTTAAATTGACTTAGTGTAAAAGCGCAGTACTGCTTGACCATAAGAACAAAAAAATCTCTATCACTGATAGGGATAAAGTTTGGAAGATAAAGCTAAAAGTTCTTATCTTTGCAGTCTCCCTATCAGTGATAGAGACGCATTTTAAAATAAAATAAATCATGTAGTTAATTAAACGAATCCATG
modifications: P1TDP-B40 Synthetic aTC-inducible promoter (distal and promixal tetO2)+RBS B40
- increase of dynamic response to aTC over P1TDP^GH023 ([3]; Bt::tetR): 3.3 fold
- reporter expression relative to background in uninduced state ([3]; Bt::tetR (TetR present), no aTC): 1.4 fold
- induction of reporter activity (luminescence) in response to aTC ([3]; Bt::tetR, aTC 100 ng/mL): 9,100 fold

B7: P1TDP^C56: Synthetic aTC-inducible promoter (distal and proximal tetO2) + RBS C56 (nucleic acid)
DNA: TTTGCACCCGCTTTCCAAGAGAAGAAAGCCTTGTTAAATTGACTTAGTGTAAAAGCGCAGTACTGCTTGACCATAAGAACAAAAAAATCTCTATCACTGATAGGGATAAAGTTTGGAAGATAAAGCTAAAAGTTCTTATCTTTGCAGTCTCCCTATCAGTGATAGAGACGCATTTTAAAATAAAATAAATTATTCGTTTAGTTAAACGAATCCATG
modifications: P1TDP-C56 Synthetic aTC-inducible promoter (distal and promixal tetO2)+RBS C56
- luminescence lower than the weakest native promoter tested ([3]; OFF state, 18 native B. thetaiotaomicron promoters): 6.7 fold

B8: P1TDP^A21: Synthetic aTC-inducible promoter (distal and proximal tetO2) + RBS A21 (nucleic acid)
DNA: TTTGCACCCGCTTTCCAAGAGAAGAAAGCCTTGTTAAATTGACTTAGTGTAAAAGCGCAGTACTGCTTGACCATAAGAACAAAAAAATCTCTATCACTGATAGGGATAAAGTTTGGAAGATAAAGCTAAAAGTTCTTATCTTTGCAGTCTCCCTATCAGTGATAGAGACGCATTTTAAAATAAAATAAATTATTTATGATATTAAACGAATCCATG
modifications: P1TDP-A21 Synthetic aTC-inducible promoter (distal and promixal tetO2)+RBS A21
- luminescence higher than the strongest native promoter tested ([3]; ON state, 18 native B. thetaiotaomicron promoters): 14 fold

B9: P1TD: Synthetic aTC-inducible promoter (distal tetO2) + RBS GH023 (nucleic acid)
DNA: TTTGCACCCGCTTTCCAAGAGAAGAAAGCCTTGTTAAATTGACTTAGTGTAAAAGCGCAGTACTGCTTGACCATAAGAACAAAAAAATCTCTATCACTGATAGGGATAAAGTTTGGAAGATAAAGCTAAAAGTTCTTATCTTTGCAGTCCGAAATAAAGACATATAAAAGAAAAGACACCATG
modifications: P1TD Synthetic aTC-inducible promoter (distal tetO2)+RBS GH023
- PMB resistance of B. thetaiotaomicron lpxF mutant expressing lpxF from the promoter (B. thetaiotaomicron [1]): increases PMB resistance to wildtype levels
